Assay results from publication PMC3510474, “Distinct gating mechanisms revealed by the structures of a multi-ligand gated K^+ channel” (eLife, 2012).

Assays:
[1] = target: full-length GsuK channel, wild type (with E52A and Q77E or R) (Geobacter sulfurreducens); test: SEC; Superdex-200 (10/30) in 20 mM CHES pH 9.0, 150 mM KSCN, 0.1 mg/ml E. coli polar lipid, 2 mM DTT, 4 mM DM (full-length GsuK channel)
[2] = target: full-length GsuK channel, wild type (with E52A and Q77E or R) (Geobacter sulfurreducens); test: crystal structure; full-length channel in DM with E. coli polar lipids, about 6 mg/ml, 20°C, 13–18% PEG3350, 250–500 mM KSCN, 100 mM CHES pH 9.0; space group C2, four subunits in the asymmetric unit as two half channels; L97D also co-crystallised with 1 mM ADP or NAD+
[3] = target: T1, GsuK (Geobacter sulfurreducens, UniProt Q74FS9, E52A/L97D, form not given); test: X-ray crystal structure, […] Å (co-crystallization); type: binding; details: 1 mM NAD+, pH 9.0; Ca2+-bound closed gating ring; nucleotide site on RCK2, nicotinamide beneath RCK1 helix αF; partial occupancy; allosteric
T1 construct: gene GSU0527; full-length channel from Ala9 with extra N-terminal MQRGS; C-terminal His-tag cut by thrombin; E. coli BL21(DE3); tetramer; model residues 17-564
T1 sequence (Q74FS9 entry or part of it E52A/L97D, form open): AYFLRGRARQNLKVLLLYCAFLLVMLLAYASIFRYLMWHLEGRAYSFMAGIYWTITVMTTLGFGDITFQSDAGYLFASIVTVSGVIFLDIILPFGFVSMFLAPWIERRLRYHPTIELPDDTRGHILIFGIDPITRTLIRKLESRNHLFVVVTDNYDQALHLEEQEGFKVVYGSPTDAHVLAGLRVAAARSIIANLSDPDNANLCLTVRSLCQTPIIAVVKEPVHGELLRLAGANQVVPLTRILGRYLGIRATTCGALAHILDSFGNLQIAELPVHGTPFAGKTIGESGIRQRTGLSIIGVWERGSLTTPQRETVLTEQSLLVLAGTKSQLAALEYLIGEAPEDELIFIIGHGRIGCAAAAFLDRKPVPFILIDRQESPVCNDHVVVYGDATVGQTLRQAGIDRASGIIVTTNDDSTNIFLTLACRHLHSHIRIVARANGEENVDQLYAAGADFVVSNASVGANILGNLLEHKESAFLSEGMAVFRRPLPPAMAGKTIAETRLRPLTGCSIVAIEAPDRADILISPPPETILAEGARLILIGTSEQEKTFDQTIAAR

[4] = target: full-length GsuK channel, L97D mutant (Geobacter sulfurreducens); test: crystal structure; full-length channel in DM with E. coli polar lipids, about 6 mg/ml, 20°C, 13–18% PEG3350, 250–500 mM KSCN, 100 mM CHES pH 9.0; space group C2, four subunits in the asymmetric unit as two half channels; L97D also co-crystallised with 1 mM ADP or NAD+
[5] = target: T1, GsuK; test: X-ray crystal structure, […] Å (co-crystallization); type: binding; details: 1 mM ADP, pH 9.0; Ca2+-bound closed gating ring; nucleotide site on RCK2; allosteric
[6] = target: GsuK intracellular subunit (Geobacter sulfurreducens); test: SEC; Superdex-200 (10/30) in 50 mM Tris–HCl pH 8.0, 250 mM KCl, 2 mM DTT, 4 mM LDAO (GsuK intracellular subunit)
[7] = target: GsuK intracellular subunit (Geobacter sulfurreducens); test: crystal structure; GsuK intracellular subunit, about 8 mg/ml in LDAO, sitting drop at 20°C, 20–23% PEG3350, 120 mM KCl, 80 mM NaNO3, 1% glycerol, 100 mM Bis-Tris propane pH 8.5; space group I222, four subunits forming a gating ring in the asymmetric unit; 3.0 Å

Work on “full-length GsuK channel, wild type (with E52A and Q77E or R) (natural protein)” yielded a stoichiometry N [1] of 4 and a stoichiometry N [2] of 4.

In the case of `NC(=O)c1ccc[n+]([C@@H]2O[C@H](COP(=O)(O)OP(=O)(O)OC[C@H]3O[C@@H](n4cnc5c(N)ncnc54)[C@H](O)[C@@H]3O)[C@@H](O)[C@H]2O)c1` [NAD^+], the “X-ray crystal structure, 3.2 Å (co-crystallization)” value [3] is reported as “we also co-crystallized the L97D mutant with ADP and NAD^+”.

“full-length GsuK channel, L97D mutant (natural protein)” gave a stoichiometry N [4] of 4.

With `Nc1ncnc2c1ncn2[C@@H]1O[C@H](COP(=O)(O)OP(=O)(O)O)[C@@H](O)[C@H]1O` [ADP] the “X-ray crystal structure, 2.8 Å (co-crystallization)” value [5] was “we also co-crystallized the L97D mutant with ADP and NAD^+”.

For “GsuK intracellular subunit (domain or fragment)”, the stoichiometry N [6] was 4 and the stoichiometry N [7] was 4.
